Reference: patent publication US20110091994A1, “Methods for Screening Compounds for Treating and/or Preventing an Hepatitis C Virus Infection” (priority 2008, published 2011)

B1: FBLN2 (protein, UniProt P98095 28-1184, looked up)
Fibulin-2: APRQDCTGVECPPLENCIEEALEPGACCATCVQQGCACEGYQYYDCLQGGFVRGRVPAGQSYFVDFGSTECSCPPGGGKISCQFMLCPELPPNCIEAVVVADSCPQCGQVGCVHAGHKYAAGHTVHLPPCRACHCPDAGGELICYQLPGCHGNFSDAEEGDPERHYEDPYSYDQEVAEVEAATALGGEVQAGAVQAGAGGPPAALGGGSQPLSTIQAPPWPAVLPRPTAAAALGPPAPVQAKARRVTEDSEEEEEEEEEREEMAVTEQLAAGGHRGLDGLPTTAPAGPSLPIQEERAEAGARAEAGARPEENLILDAQATSRSTGPEGVTHAPSLGKAALVPTQAVPGSPRDPVKPSPHNILSTSLPDAAWIPPTREVPRKPQVLPHSHVEEDTDPNSVHSIPRSSPEGSTKDLIETCCAAGQQWAIDNDECLEIPESGTEDNVCRTAQRHCCVSYLQEKSCMAGVLGAKEGETCGAEDNDSCGISLYKQCCDCCGLGLRVRAEGQSCESNPNLGYPCNHVMLSCCEGEEPLIVPEVRRPPEPAAAPRRVSEAEMAGREALSLGTEAELPNSLPGDDQDECLLLPGELCQHLCINTVGSYHCACFPGFSLQDDGRTCRPEGHPPQPEAPQEPALKSEFSQVASNTIPLPLPQPNTCKDNGPCKQVCSTVGGSAICSCFPGYAIMADGVSCEDINECVTDLHTCSRGEHCVNTLGSFHCYKALTCEPGYALKDGECEDVDECAMGTHTCQPGFLCQNTKGSFYCQARQRCMDGFLQDPEGNCVDINECTSLSEPCRPGFSCINTVGSYTCQRNPLICARGYHASDDGTKCVDVNECETGVHRCGEGQVCHNLPGSYRCDCKAGFQRDAFGRGCIDVNECWASPGRLCQHTCENTLGSYRCSCASGFLLAADGKRCEDVNECEAQRCSQECANIYGSYQCYCRQGYQLAEDGHTCTDIDECAQGAGILCTFRCLNVPGSYQCACPEQGYTMTANGRSCKDVDECALGTHNCSEAETCHNIQGSFRCLRFECPPNYVQVSKTKCERTTCHDFLECQNSPARITHYQLNFQTGLLVPAHIFRIGPAPAFTGDTIALNIIKGNEEGYFGTRRLNAYTGVVYLQRAVLEPRDFALDVEMKLWRQGSVTTFLAKMHIFFTTFAL
B2: FBLN5 (protein, UniProt Q9UBX5 24-448, looked up)
Fibulin-5: QAQCTNGFDLDRQSGQCLDIDECRTIPEACRGDMMCVNQNGGYLCIPRTNPVYRGPYSNPYSTPYSGPYPAAAPPLSAPNYPTISRPLICRFGYQMDESNQCVDVDECATDSHQCNPTQICINTEGGYTCSCTDGYWLLEGQCLDIDECRYGYCQQLCANVPGSYSCTCNPGFTLNEDGRSCQDVNECATENPCVQTCVNTYGSFICRCDPGYELEEDGVHCSDMDECSFSEFLCQHECVNQPGTYFCSCPPGYILLDDNRSCQDINECEHRNHTCNLQQTCYNLQGGFKCIDPIRCEEPYLRISDNRCMCPAENPGCRDQPFTILYRDMDVVSGRSVPADIFQMQATTRYPGAYYIFQIKSGNEGREFYMRQTGPISATLVMTRPIKGPREIQLDLEMITVNTVINFRGSSVIRLRIYVSQYPF
B3: DPF1 (protein, UniProt Q92782 1-387, looked up)
Zinc finger protein neuro-d4: MATVIPGPLSLGEDFYREAIEHCRSYNARLCAERSLRLPFLDSQTGVAQNNCYIWMEKTHRGPGLAPGQIYTYPARCWRKKRRLNILEDPRLRPCEYKIDCEAPLKKEGGLPEGPVLEALLCAETGEKKIELKEEETIMDCQKQQLLEFPHDLEVEDLEDDIPRRKNRAKGKAYGIGGLRKRQDTASLEDRDKPYVCDICGKRYKNRPGLSYHYTHTHLAEEEGEENAERHALPFHRKNNHKQFYKELAWVPEAQRKHTAKKAPDGTVIPNGYCDFCLGGSKKTGCPEDLISCADCGRSGHPSCLQFTVNMTAAVRTYRWQCIECKSCSLCGTSENDDQLLFCDDCDRGYHMYCLSPPMAEPPEGSWSCHLCLRHLKEKASAYITLT
B4: CORO1B (protein, UniProt Q9BR76 1-489, looked up)
Coronin-1B: MSFRKVVRQSKFRHVFGQPVKNDQCYEDIRVSRVTWDSTFCAVNPKFLAVIVEASGGGAFLVLPLSKTGRIDKAYPTVCGHTGPVLDIDWCPHNDEVIASGSEDCTVMVWQIPENGLTSPLTEPVVVLEGHTKRVGIIAWHPTARNVLLSAGCDNVVLIWNVGTAEELYRLDSLHPDLIYNVSWNHNGSLFCSACKDKSVRIIDPRRGTLVAEREKAHEGARPMRAIFLADGKVFTTGFSRMSERQLALWDPENLEEPMALQELDSSNGALLPFYDPDTSVVYVCGKGDSSIRYFEITEEPPYIHFLNTFTSKEPQRGMGSMPKRGLEVSKCEIARFYKLHERKCEPIVMTVPRKSDLFQDDLYPDTAGPEAALEAEEWVSGRDADPILISLREAYVPSKQRDLKISRRNVLSDSRPAMAPGSSHLGAPASTTTAADATPSGSLARAGEAGKLEEVMQELRALRALVKEQGDRICRLEEQLGRMENGDA
B5: FAM120B (protein, UniProt Q96EK7 1-910, looked up)
Constitutive coactivator of …: MGVRGLQGFVGSTCPHICTVVNFKELAEHHRSKYPGCTPTIVVDAMCCLRYWYTPESWICGGQWREYFSALRDFVKTFTAAGIKLIFFFDGMVEQDKRDEWVKRRLKNNREISRIFHYIKSHKEQPGRNMFFIPSGLAVFTRFALKTLGQETLCSLQEADYEVASYGLQHNCLGILGEDTDYLIYDTCPYFSISELCLESLDTVMLCREKLCESLGLCVADLPLLACLLGNDIIPEGMFESFRYKCLSSYTSVKENFDKKGNIILAVSDHISKVLYLYQGEKKLEEILPLGPNKALFYKGMASYLLPGQKSPWFFQKPKGVITLDKQVISTSSDAESREEVPMCSDAESRQEVPMCTGPESRREVPVYTDSEPRQEVPMCSDPEPRQEVPTCTGPESRREVPMCSDPEPRQEVPMCTGPEARQEVPMYTDSEPRQEVPMYTDSEPRQEVPMYTGSEPRQEVPMYTGPESRQEVPMYTGPESRQEVLIRTDPESRQEIMCTGHESKQEVPICTDPISKQEDSMCTHAEINQKLPVATDFEFKLEALMCTNPEIKQEDPTNVGPEVKQQVTMVSDTEILKVARTHHVQAESYLVYNIMSSGEIECSNTLEDELDQALPSQAFIYRPIRQRVYSLLLEDCQDVTSTCLAVKEWFVYPGNPLRHPDLVRPLQMTIPGGTPSLKILWLNQEPEIQVRRLDTLLACFNLSSSREELQAVESPFQALCCLLIYLFVQVDTLCLEDLHAFIAQALCLQGKSTSQLVNLQPDYINPRAVQLGSLLVRGLTTLVLVNSACGFPWKTSDFMPWNVFDGKLFHQKYLQSEKGYAVEVLLEQNRSRLTKFHNLKAVVCKACMKENRRITGRAHWGSHHAGRWGRQGSSYHRTGSGYSRSSQGQPWRDQGPGSRQYEHDQWRRY
B6: DEAF1 (protein, UniProt O75398 1-565, looked up)
Deformed epidermal …: MEDSDSAAKQLGLAEAAAVAAAAAVAAAAAAAAGGEAEEPVLSRDEDSEEDADSEAERETPRVTAVAVMAAEPGHMDMGAEALPGPDEAAAAAAFAEVTTVTVANVGAAADNVFTTSVANAASISGHVLSGRTALQIGDSLNTEKATLIVVHTDGSIVETTGLKGPAAPLTPGPQSPPTPLAPGQEKGGTKYNWDPSVYDSELPVRCRNISGTLYKNRLGSGGRGRCIKQGENWYSPTEFEAMAGRASSKDWKRSIRYAGRPLQCLIQDGILNPHAASCTCAACCDDMTLSGPVRLFVPYKRRKKENELPTTPVKKDSPKNITLLPATAATTFTVTPSGQITTSGALTFDRASTVEATAVISESPAQGDVFAGATVQEASVQPPCRASHPEPHYPGYQDSCQIAPFPEAALPTSHPKIVLTSLPALAVPPPTPTKAAPPALVNGLELSEPRSWLYLEEMVNSLLNTAQQLKTLFEQAKHASTYREAATNQAKIHADAERKEQSCVNCGREAMSECTGCHKVNYCSTFCQRKDWKDHQHICGQSAAVTVQADEVHVAESVMEKVTV
B7: EFEMP2 (protein, UniProt O95967 24-443, looked up)
EGF-containing fibulin-like …: SASPQDSEEPDSYTECTDGYEWDPDSQHCRDVNECLTIPEACKGEMKCINHYGGYLCLPRSAAVINDLHGEGPPPPVPPAQHPNPCPPGYEPDDQDSCVDVDECAQALHDCRPSQDCHNLPGSYQCTCPDGYRKIGPECVDIDECRYRYCQHRCVNLPGSFRCQCEPGFQLGPNNRSCVDVNECDMGAPCEQRCFNSYGTFLCRCHQGYELHRDGFSCSDIDECSYSSYLCQYRCINEPGRFSCHCPQGYQLLATRLCQDIDECESGAHQCSEAQTCVNFHGGYRCVDTNRCVEPYIQVSENRCLCPASNPLCREQPSSIVHRYMTITSERSVPADVFQIQATSVYPGAYNAFQIRAGNSQGDFYIRQINNVSAMLVLARPVTGPREYVLDLEMVTMNSLMSYRASSVLRLTVFVGAYTF
B8: CTGF (protein, UniProt P29279 27-349, looked up)
CCN family member 2: QNCSGPCRCPDEPAPRCPAGVSLVLDGCGCCRVCAKQLGELCTERDPCDPHKGLFCHFGSPANRKIGVCTAKDGAPCIFGGTVYRSGESFQSSCKYQCTCLDGAVGCMPLCSMDVRLPSPDCPFPRRVKLPGKCCEEWVCDEPKDQTVVGPALAAYRLEDTFGPDPTMIRANCLVQTTEWSACSKTCGMGISTRVTNDNASCRLEKQSRLCMVRPCEADLEENIKKGKKCIRTPKISKPIKFELSGCTSMKTYRAKFCGVCTDGRCCTPHRTTTLPVEFKCPDGEVMKKNMMFIKTCACHYNCPGDNDIFESLYYRKMYGDMA

molecular target: T1, HCV ORFs (Gal4-DB fusions) (Hepatitis C virus genotype 1b, UniProt Q9WMX2); experiment: not given; format: binding, HCV genotype 1b, isolate con1; conditions: HCV protein CORE as bait; human protein as prey
T1 construct: expressed in transfected cells; host or cells: Saccharomyces cerevisiae MAV203 (IMAP1) / AH109 (IMAP2)
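For IMAP Y2H IMAP1 (number of IST) in this document: yeast two-hybrid screens using HCV genotype 1b proteins fused to Gal4-DB as baits against prey cDNA libraries from human spleen and foetal brain, IMAP1 via transformation and IMAP2 via mating.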
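For Interaction with viral protein in this document: yeast two-hybrid screens using HCV genotype 1b proteins fused to Gal4-DB as baits against prey cDNA libraries from human spleen and foetal brain, IMAP1 via transformation and IMAP2 via mating.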

| Molecule | IMAP Y2H IMAP1 (number of IST) |
| --- | --- |
| B1 | 1 |
| B2 | 1 |

same assay, conditions: HCV protein NS2 as bait; human protein as prey

| Molecule | IMAP Y2H IMAP1 (number of IST) |
| --- | --- |
| B2 | 1 |

same assay, conditions: HCV protein NS3 as bait; human protein as prey

| Molecule | IMAP Y2H IMAP1 (number of IST) |
| --- | --- |
| B1 | 9 |
| B3 | 1 |
| B4 | 8 |
| B5 | 1 |
| B6 | 6 |
| B7 | 3 |
| B2 | 32 |
| B8 | 1 |

same assay, conditions: HCV protein p7 as bait; human protein as prey

| Molecule | IMAP Y2H IMAP1 (number of IST) |
| --- | --- |
| B1 | 1 |

test system: HCV ORFs (Gal4-DB fusions); experiment: not given; format: binding, HCV genotype 1b, isolate con1; conditions: human protein listed by gene symbol; the value names the HCV protein it interacts with

| Molecule | Interaction with viral protein |
| --- | --- |
| B1 | CORE and NS3 |
| B3 | NS3 |
| B4 | NS3 |
| B5 | NS3 |
| B6 | NS3 |
| B7 | NS3 |
| B2 | CORE and NS3 and NS2 |
| B8 | NS3 |

molecular target: T2, HCV proteins (Hepatitis C virus genotype 1b, UniProt Q9WMX2); experiment: Validation by Y2H pairwise matrices; format: binding; conditions: interaction with HCV protein p7;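 also: yeast two-hybrid pairwise tests of interactions first found in Y2H screens of HCV bait proteins against human cDNA libraries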
T2 construct: expressed in transfected cells

| Molecule | Y2H matrices |
| --- | --- |
| B1 | + |

same assay, conditions: validation of interaction with HCV protein CORE

| Molecule | Y2H matrices |
| --- | --- |
| B1 | + |
| B2 | + |

same assay, conditions: validation of interaction with HCV protein NS2

| Molecule | Y2H matrices |
| --- | --- |
| B2 | + |

same assay, conditions: validation of interaction with HCV protein NS3

| Molecule | Y2H matrices |
| --- | --- |
| B1 | + |
| B3 | + |
| B4 | + |
| B5 | + |
| B6 | + |
| B7 | + |
| B2 | + |
| B8 | + |
